For 104 substances, amyloid nucleation score results are on record in the supplement of paper PMC12042874.

± gives the uncertainty stated by the source.

The series in a line: amyloid nucleation score (Sup35N fusion, yeast selection) (log enrichment); library NNK2; higher = more nucleation; inactive = no reads after selection. In short, it runs like this: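 On medium lacking adenine and uracil, psi-negative yeast expressing peptides of 20 random codons fused to Sup35N were grown 7 days at 30°C after a 24-hour induction with 100 μM copper sulfate. Illumina sequencing of input and output plasmid inserts gave the reads, and sequences under 100 input reads were excluded. The nucleation score is the DiMSum log enrichment of output over input reads, centred on the mode score of non-aggregating sequences.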
Turning to FYECNMSQVRDFPLHMYRYS, the amyloid nucleation score result was “inactive”.

Substance SGGHKWVYFASCISFLRPWR yielded an amyloid nucleation score of -0.069 ± 0.55. On to DMAKGVLRSLFGTA, for which the amyloid nucleation score is -0.154 ± 0.36.

With HHNTCKGM, the amyloid nucleation score was determined as 4.35 ± 0.062. In the case of MKCWASPGWTQIQMEPKEGS it was 0.064 ± 0.26; in that of TYLGNLYIMRFRAVLREPLV, 0.077 ± 0.8. The substance YITFLVWFQNFGYTGHD had an amyloid nucleation score of 7.162 ± 0.062. In the case of RYSRFSDQSMFSRPYA it was 0.333 ± 0.31; in that of VLLLAQHVLSGSNFTMG, 3.44 ± 0.045; in that of VAPTETRVDPIPSVGPVPGA, 1.66 ± 0.34. In the case of MEQELMFREWLW it was -0.284 ± 0.48; in that of RYSITGTYYIA, 3.63 ± 0.057.

For QCGWDFLFIVMCKFVQRRCS, the amyloid nucleation score was 0.35 ± 0.8. In the case of LNSYRPWCWY, the amyloid nucleation score entry was “inactive”. In the case of LLVVIPYGSYWDV it was -0.501 ± 0.78; in that of GLGRKYNMRRRLKLVFWRSD, 4.23 ± 0.084; in that of GIIDLIYCNAEEHSHWGDFA, -1.17 ± 0.62. In the case of YVNVL it was 0.479 ± 0.49; in that of VFKRNQ, 0.769 ± 0.41. In the case of MHGREFWRCTSWSSLVNLGV it was 0.998 ± 0.19; in that of GTVLMRFGGCLFFVMSRQNC, 1.89 ± 0.42; in that of VYLYGPQLLSRWWIQLCCQM, 2.96 ± 0.15. In the case of ELVGYNVVGAIGSQ, the amyloid nucleation score is -0.022 ± 0.26.

As for SFIVRRFSSCLHLFGDSEGY, the amyloid nucleation score is -0.098 ± 0.41. With HCVDLLREMQ, the amyloid nucleation score was 0.621 ± 0.43. In the case of ICQCRSLRGRAYQVLGVNKS it was 0.731 ± 0.57. In the case of FGGIFCFSLYR it was 3.52 ± 0.071; in that of PFSWVASDNTYQSTSLSIVH, 0.995 ± 0.51; in that of TSRDFYRNAGIARFAYYNSP, -1.15 ± 0.23. Regarding LLANPIELRRYGPTSLKVGI, the amyloid nucleation score was -0.669 ± 0.55. On to FCALWVQFRYRE, for which the amyloid nucleation score stood at 3.89 ± 0.1. In the case of SLNNIRLLTHYLDFGVRNLA it was 3.04 ± 0.092; in that of YAGTH, -1.72 ± 0.48; in that of PRDRLSSGPLQWHGFIIGYV, 0.676 ± 0.23. In the case of STMREQRRRAWRKDCDVIKV it was 1.84 ± 0.22; in that of DEEVSWRIG, 0.196 ± 0.46; in that of KICCIQVLLKYMGQWVQFR, 0.053 ± 1.1. Substance EGFKYWIDKGSSGTVCVKST showed an amyloid nucleation score of 0.249 ± 0.65. In the case of DLRLTSHIRSFIFAGVPVLF it was -1.65 ± 0.49; in that of KTTLVHFFVAREYLWRRMWG, 4.38 ± 0.084; in that of WRMREWKWVEYCRHSVKDAL, 1.54 ± 0.31. In the case of LWCSDCISTEIIHNQRFA it was -0.152 ± 1; in that of HFLVHFVFDLIRCVLAFVYC, 0.61 ± 0.12.

AFGFSI: the amyloid nucleation score was -1.3 ± 0.42. In the case of KACWCLYQGLTLSAQVQLWP it was 1.26 ± 0.26; in that of HSSMLLSVFDLNARK, -0.174 ± 0.49. In the case of QCMVVQYD it was -0.394 ± 0.65; in that of MYDCGVLFIDIRVKVGHVLE, 0.167 ± 0.56. In the case of LLCNGVSGGQTNQDIFHMPC it was “inactive”; in that of KIFNSSSFFQL, 0.098 ± 0.65; in that of RWDCLQLLISSCFFDMDGCG, -0.668 ± 0.64.

SHGCGHRL displayed an amyloid nucleation score of -0.051 ± 0.79. In the case of SLCGRRFNTDEPLLETRSSL it was 0.817 ± 0.51. In the case of HTWGAHRFCRWRNTSASDSW it was 8.703 ± 0.03; in that of VYRMPGVSWKYVS, 0.501 ± 0.8. WRGLGVLYVSCVDSRVSSI registered an amyloid nucleation score of -1.73 ± 0.75. In the case of SVLMSCD it was 0.135 ± 0.65; in that of LNGLLTIRADVASKSIRLMH, 0.004 ± 0.51. In the case of INRCMLIPTRFVVAYSWKCV it was -1.03 ± 0.78; in that of WFTYQVAYVWYGRNFDTSPA, 7.961 ± 0.067; in that of YFRSCDKCGAYEANHEFKTT, “inactive”. Substance EFMGVSR had an amyloid nucleation score of 1.51 ± 0.52. In the case of KSGMWAFYSEDKRTSGLLRW it was 0.626 ± 0.65; in that of LMGIEVDGYYGCRCLTP, 0.236 ± 1.1; in that of TRTGCDMGRRLVCS, 0.171 ± 0.35. Turning to NKVVAFNGLV, the amyloid nucleation score result was “inactive”. In the case of ILELDMLLCKKVTHL it was 4.3 ± 0.089.

In turn, LSSPDVPNIHAALRTRTGWA came in with an amyloid nucleation score of -0.328 ± 0.27.

Turning to ASGVYHDSFRRLCCMGDLSC, the amyloid nucleation score was -0.121 ± 0.18. In the case of SRKPNQINNRSRNSMLGARR it was -0.162 ± 0.27; in that of HCKLVFRGVMTESHSSACGG, 2.82 ± 0.071. In the case of SNLNPVHSDLLMYEMPCNLT it was -0.492 ± 1.1. In the case of HHATKNFCTLFCLKSWGRFS it was 7.767 ± 0.059; in that of EYRGSVWLAGS, -0.379 ± 0.29. SHCCFLG: the amyloid nucleation score amounted to 0.118 ± 0.51. In the case of LDYSNFNTRKFAKDEGDMRR it was 8.371 ± 0.049. In the case of HCSVSLTFFVLQTPL it was 4.79 ± 0.069; in that of MRYEALMHPWSWRFR, 1.06 ± 0.12. In the case of SIFSKYCF it was -0.464 ± 0.5; in that of WGSMYRYFVDGSWFVVDISP, -0.26 ± 0.27; in that of FSLLD, -0.264 ± 0.45. Regarding SSFFLTQSKSFGYA, the amyloid nucleation score entry is “inactive”.

Substance LFGSVHGLTCVLSGLYCVQH gave an amyloid nucleation score of 10.32 ± 0.04. In the case of IGSRVVYISRVLLKNWTLVT it was -0.592 ± 0.76. In the case of SRQRVMLLC it was “inactive”; in that of TNMIMLFIRMGLRHGDKWAW, 2.54 ± 0.19; in that of VQGLHCWIG, “inactive”.

GLWRLYWILFHF had an amyloid nucleation score of -1.17 ± 0.78. In the case of TLTLCTSSLDC it was 1.1 ± 0.61.

Take QEFLWWGREQLGVCCLGVGR: the amyloid nucleation score was 2.88 ± 0.14. In the case of LVGKFNWCEVQKKCSRFRCR, the amyloid nucleation score was -0.29 ± 0.62.

FLKGPTEECQLRPSLRTNLQ showed an amyloid nucleation score of 0.069 ± 0.23. In the case of GLYANFVPAIRTDGRGWRFW it was -0.352 ± 0.48; in that of DFNSCRLTVHLRYTSVPCRY, 0.233 ± 0.74; in that of MKFQPETVCYFRGYWLDRQY, -0.251 ± 0.39. Take VWVKVLYYSRDICTLWSPGW: the amyloid nucleation score is -0.059 ± 0.5. In the case of FYSTLFHFPYLVDQMYGPTI it was -1.29 ± 1. In turn, GCKSGDQDLALRNGCRKQRS yielded an amyloid nucleation score of 0.594 ± 0.45.

As to VNLSTGSRDLRGYWTTPIFQ, the amyloid nucleation score was -0.815 ± 0.54. Substance LHTWSVSLVYYNVFYLSSRA showed an amyloid nucleation score of -0.417 ± 1.1.

Substance LYLTGNF returned an amyloid nucleation score of -0.199 ± 0.76. In the case of NALHEIQLDICMRSIEARGY it was -1.19 ± 0.39; in that of LPGMNTIILD, 2.17 ± 0.081. With MTVDYLHRLCCMRPLYTSKN, the amyloid nucleation score result was “inactive”.
